Data from US20080287363A1.

Key:
CCL5/RANTES [1] = target: CCL5/RANTES (UniProt P13501); assay: equilibrium competition receptor binding assay (SPA): inhibition of 0.1 nM 125I-RANTES binding to CHO/CCR1 membranes
CCL5/RANTES [2] = target: CCL5/RANTES (UniProt P13501); assay: equilibrium competition receptor binding assay (SPA): inhibition of 0.1 nM 125I-RANTES binding to CHO/CCR5 membranes

Sequence of CCL5/RANTES (P13501 24-91 limits assumed): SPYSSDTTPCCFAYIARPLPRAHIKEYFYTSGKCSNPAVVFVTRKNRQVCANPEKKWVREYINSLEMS

“recombinant Δ6 evasin-4 (truncated, N-terminally 6His tagged evasin-4, amino acids 24-127), purified” was tested, and the IC50 (CCL5/RANTES [1]) was 7 nM and the IC50 (CCL5/RANTES [2]) was 3 nM.
